Here are results for seven compounds from publication PMC7919490, “Effect of C-terminus Conjugation via Different Conjugation Chemistries on In Vivo Activity of Albumin-Conjugated Recombinant GLP-1” (Pharmaceutics, 2021).

For data set [1] the following is noted: cited from earlier work. The text has this: Although GLP-1 exerts significant effects in an individual’s body, its short half-life is a significant drawback. Many studies have been conducted in effort to overcome the hurdles of GLP-1 and to develop it as a medication. Traditional efforts to increase the size of small therapeutic proteins have included polyethylene glycol (PEG) conjugation. […] The in vitro activity of GLP1_8A37C-HSA was greater than that of GLP1_8G37C-HSA, probably due to the alanine to glycine change at position 8 (A8G) affecting the interactions with GLP-1R. […] Despite the low EC50 value of GLP1_ ...

The target in a further data set is T1, GLP-1R (Homo sapiens, UniProt P43220).
T1 construct: Tango fusion cassette (named only as '_tango' in the plasmid name); host or cells: HEK293 (ATCC), transiently transfected
The data set is described as follows: In vitro activity assay: cAMP production by GLP-1R-overexpressing HEK-293 cells. Format: cell-based. As to conditions: HEK293 cells transfected with pcDNA3.1-GLP-1R_tango; 15 min exposure; cAMP Parameter Assay Kit; normalized to cAMP with 1 μM GLP1_C; dose-response fit in OriginPro; n = 3/group. As to the method:
The plasmid pcDNA3.1-GLP-1R_tango (Addgene, Cambridge, MA, USA) and transfection reagent were then mixed in serum-free medium for 20 min, in accordance with the manufacturer’s recommendation. […] The levels of cAMP in the cell lysate were measured using the cAMP Parameter Assay Kit following the manufacturer’s protocol. […] The half maximal effective concentrations (EC50) of each curve were estimated from a dose–response curve using OriginPro software. Absorbance at 450 nm was monitored using a Varioskan Lux microplate reader (Thermo Fisher Scientific).
For orientation: Changes in cAMP serve as a functional read-out for many G protein-coupled receptors.

The next data set concerns the target GLP-1 receptor (GLP-1R) (UniProt P43220).

The EC50 is the concentration giving half of the maximal effect. Lower therefore signals greater potency.

T1 sequence (P43220 24-463): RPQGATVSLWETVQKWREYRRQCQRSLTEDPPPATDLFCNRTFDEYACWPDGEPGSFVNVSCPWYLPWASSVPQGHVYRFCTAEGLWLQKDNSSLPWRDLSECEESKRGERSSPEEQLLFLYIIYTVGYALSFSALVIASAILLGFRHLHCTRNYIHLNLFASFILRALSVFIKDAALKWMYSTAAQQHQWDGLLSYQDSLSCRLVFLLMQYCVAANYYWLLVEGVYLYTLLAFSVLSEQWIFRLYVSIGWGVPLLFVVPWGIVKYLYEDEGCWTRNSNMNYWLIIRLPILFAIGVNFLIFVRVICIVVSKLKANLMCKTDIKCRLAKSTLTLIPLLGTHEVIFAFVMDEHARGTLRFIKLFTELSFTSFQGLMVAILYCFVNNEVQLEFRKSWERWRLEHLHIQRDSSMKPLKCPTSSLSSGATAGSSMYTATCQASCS
GLP-1 receptor (GLP-1R), sequence (P43220 24-463): as above

For the compound Glucagon-like peptide-1 [GLP-1], in data set [1] (reported, reference not given), the “half-life in the body” value is 2 to 3 min.

“GLP1_8A37C-HSA: GLP1-HSA conjugate with alanine at position 8 and albumin at its C-terminus (HAEGTFTSDVSSYLEGQAAKEFIAWLVRGRC; not fully specified; GLP-1(7-37), Ala8 kept, G37C; Cys37 is joined through TET-PEG4-maleimide / TCO-maleimide (IEDDA) to Cys34 of human serum albumin (carrier, UniProt P02768 25-609, not included))”: in the data set with GLP-1R, the EC50 amounted to 0.185 µM.

With “GLP1_8G37C-HSA (from UniProt P02768 25-609)”, the EC50 of cAMP production by GLP-1R-overexpressing HEK-293 cells with GLP-1 receptor (GLP-1R) is 1.34 µM.

“GLP1_8G16AzF-HSA: GLP1-HSA conjugate generated by HSA conjugation to position 16 of GLP-1 via SPAAC (HGEGTFTSDFSSYLEGQAAKEFIAWLVRGRG; not fully specified; GLP-1(7-37) A8G; Residue 16 (entry position 10) is p-azido-L-phenylalanine, written as parent Phe, joined by SPAAC through DBCO-PEG4-maleimide to Cys34 of human serum albumin (carrier, UniProt P02768)” came in with an EC50 with GLP-1R of 1.11 µM.

For the compound “GLP1_8A37C-HSA (from UniProt P02768 25-609)”, in the data set with GLP-1 receptor (GLP-1R), the EC50 of cAMP production by GLP-1R-overexpressing HEK-293 cells is 0.185 µM.

Regarding `CC[C@H](C)[C@H](NC(=O)[C@H](Cc1ccccc1)NC(=O)[C@H](CCC(=O)O)NC(=O)[C@H](CCCCN)NC(=O)[C@H](C)NC(=O)[C@H](C)NC(=O)[C@H](CCC(N)=O)NC(=O)CNC(=O)[C@H](CCC(=O)O)NC(=O)[C@H](CC(C)C)NC(=O)[C@H](Cc1ccc(O)cc1)NC(=O)[C@H](CO)NC(=O)[C@H](CO)NC(=O)[C@@H](NC(=O)[C@H](CC(=O)O)NC(=O)[C@H](CO)NC(=O)[C@@H](NC(=O)[C@H](Cc1ccccc1)NC(=O)[C@@H](NC(=O)CNC(=O)[C@H](CCC(=O)O)NC(=O)[C@H](C)NC(=O)[C@@H](N)Cc1c[nH]cn1)[C@@H](C)O)[C@@H](C)O)C(C)C)C(=O)N[C@@H](C)C(=O)N[C@@H](Cc1c[nH]c2ccccc12)C(=O)N[C@@H](CC(C)C)C(=O)N[C@H](C(=O)N[C@@H](CCCNC(=N)N)C(=O)NCC(=O)N[C@@H](CCCNC(=N)N)C(=O)NCC(=O)O)C(C)C` [GLP1_C], in data set [1] (in animal), the plasma half-life entry is on record as “only a few minutes in animal”.

In turn, “GLP1_8G37C-HSA: GLP1-HSA conjugate, HSA conjugated to GLP1_8G37C via Michael addition and IEDDA (HGEGTFTSDVSSYLEGQAAKEFIAWLVRGRC; not fully specified; GLP-1(7-37) A8G, G37C; Cys37 is joined through TET-PEG4-maleimide / TCO-maleimide (IEDDA) to Cys34 of human serum albumin (carrier, UniProt P02768 25-609, not included); K34R is inferred from the expe)” came in with an EC50 with GLP-1R of 1.34 µM.
